# In patent US20110178027A1:
# Target: PC4 (UniProt Q6UW60)
# Assay: enzyme inhibition
# Sequence of PC4 (Q6UW60 114-708): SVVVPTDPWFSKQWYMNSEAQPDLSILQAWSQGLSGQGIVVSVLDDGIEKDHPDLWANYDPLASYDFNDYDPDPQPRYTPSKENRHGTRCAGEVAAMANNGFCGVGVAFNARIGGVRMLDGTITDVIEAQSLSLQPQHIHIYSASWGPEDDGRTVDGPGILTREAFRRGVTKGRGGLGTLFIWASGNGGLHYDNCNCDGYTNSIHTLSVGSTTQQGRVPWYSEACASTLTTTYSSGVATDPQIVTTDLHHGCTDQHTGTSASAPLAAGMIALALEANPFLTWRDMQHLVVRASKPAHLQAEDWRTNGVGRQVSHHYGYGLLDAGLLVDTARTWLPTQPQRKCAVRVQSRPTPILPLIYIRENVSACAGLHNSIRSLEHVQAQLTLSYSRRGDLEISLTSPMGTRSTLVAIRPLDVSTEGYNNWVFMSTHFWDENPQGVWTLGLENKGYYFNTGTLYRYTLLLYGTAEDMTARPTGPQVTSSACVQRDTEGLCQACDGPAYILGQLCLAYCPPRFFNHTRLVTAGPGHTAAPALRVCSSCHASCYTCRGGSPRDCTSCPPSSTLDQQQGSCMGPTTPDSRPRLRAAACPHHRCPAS
row,Ki [µM],Substance
1,0.73,LLLRVKR-NH2
2,0.33,LLRVKR-NH2
3,0.63,LRVKR-NH2
4,20.8,RVKR-NH2
